Measurements reported in the DeepSol protein solubility set.

Test: soluble on expression in E. coli; label from the status in PepcDB or PDB records

| Sequence | soluble on expression in E. coli |
| --- | --- |
| MSTDPTPPQLTRRTAKVSIDNQTGSHFKFQVTHKYTGWDADKSDVVMFQPDEVKEIFKSVAYNTGFLTTGVDNWLVDGTMVQERTEVDNKGHQIGKKSYIEHAKFISDSRSWKQHMLTAEDDGKTTTIRVFPTEIHFISPSGESTTTFTKY | not soluble |
| MYNVEIRRPNSDDLEELHSFFRIVITNTFKDEGLSQLSDDIENEINTKKQYLKNDFDSNGEKRYFLLAIDTNNDKIIGTIEVGPASTLINSCTGGVLKDLYEIGTVFILPEYQKKGIGSFLLHTMFLTLLSRGITEYCLDSGYKKAQSIWTKKFGEPSYVLKDYWGESSDHMIWKKSLYDTPIIFELMAGDPLEHHHHHH | soluble |
| MSDKKVFILSGARTPIGAYRGSFANFGAVELGTVAAKAAIERSGVAPEKIEEVIGGCVLPAGLGQNVTRQISLSAGLPVTTQAVTVNKVCSSSMKALVTAAVEIKAGYYDTILVVGTENMSQVPFYVPRGEIPFGGIQMTDGISKDGLEDIKEKGPMGLCAEKTVKDYGITREEQDAYAIESYKKASNAWSSEKFSEEVVPVSVKTSRSEVVITEDEEYKKLIESKVSSLKPVFVRDGTGTITPANASSLNDGAVATVVVGENALPQGAHPLAELVAFAEAGRAPIDFTVAPVDAVRLLLKKSGLQVSDIALWELNEAFAVTVLAFIKELNIEPSVVNVKGGAVAIGHPLGMSGLRIVNSLAYSLAPGQLGVAAICNGGGEATAVLIKKL | not soluble |
| MAPLETIYDESLNKSADSIDDKKWSKLFPRIVSDPDRSSNFMTRAIYVAFSAVLRNRNILGQEYFTKNYITEKLKCMTLCFRNPRSNQIAQLLRNAGDATKDGFLKEVSLVITNNEGDLEAIEVFSMKFIYFENGGVVARLSTDKNGQEDPHFAKLAQLVYEGGDSVRDQMVTIVRSVQFLCTKVLEPLPEEFTANFRLEYTNDAPSNFRIDGFEDSSTFYTLPDDIQSATIGHLRPGCHAANMECWSMLMSDSYEAELTLKRHLDKVSDRHGFNPVNVLYKSFNSEDSDTSLSQATTESVNDQGGNETSPVDDITESLEKAQMSPIQTRPTTRRGADGSKTRSSPYSRSCK | not soluble |
| MSLGLTTKPLSLKVNAALFDVDGTIIISQPAIAAFWRDFGKDKPYFDAEHVIQVSHGWRTFDAIAKFAPDFANEEYVNKLEAEIPVKYGEKSIEVPGAVKLCNALNALPKEKWAVATSGTRDMAQKWFEHLGIRRPKYFITANDVKQGKPHPEPYLKGRNGLGYPINEQDPSKSKVVVFEDAPAGIAAGKAAGCKIIGIATTFDLDFLKEKGCDIIVKNHESIRVGGYNAETDEVEFIFDDYLYAKDDLLKWEGHHHHHH | soluble |
| GPLGSPEFGYWITCCPTCDVDINTWVPFYSTELNKPAMIYCSHGDGHWVHAQCMDLEERTLIHLSEGSNKYYCNEHVQIARA | soluble |
| MKIGIGSDHGGYNLKREIADFLKKRGYEVIDFGTHGNESVDYPDFGLKVAEAVKSGECDRGIVICGTGLGISIAANKVPGIRAAVCTNSYMARMSREHNDANILALGERVVGLDLALDIVDTWLKAEFQGGRHATRVGKIGEIEKKYSK | soluble |
| PESPGGRGIKPDTCPAPGPRSPLQLPLAPDAESGSSGRRPGEPRDPLKLQQLQNQIRLEQEAGARQPPPAPRSAPPSPPFPPPPAFPELAACTPPASPEPMSALASRSAPAMQSSGSFNYARPKQFIAAQNLGPASGHGTPASSPSSSSLPSPMSPTPRQFGRAPVPPFAQPFGAEPEAPWGSSSPSPPPPPPPVFSPTAAFPVPDVFPLPPPPPPLPSPGQASHCSSPATRFGHGQTPAAFLSALLPSQPPPAAVNALGLPKGVTPAGFPKKASRTARIASDEEIQGTKDAVIQDLERKLRFKEDLLNNGQPRLTYEERMARRLLGADSATVFNIQEPEEETANQEYKVSSCEQRLISEIEYRLERSPVDESGDEVQYGDVPVENGMAPFFEMKLKHYKIFEGMPVTFTCRVAGNPKPKIYWFKDGKQISPKSDHYTIQRDLDGTCSLHTTASTLDDDGNYTIMAANPQGRISCTGRLMVQAVNQRGRSPRSPSGHPHVRRPRSRSRDSGDENEPIQERFFRPHFLQAPGDLTVQEGKLCRMDCKVSGLPTPDLSWQLDGKPVRPDSAHKMLVRENGVHSLIIEPVTSRDAGIYTCIATNRAGQNSFSLELVVAAKEAHKPPVFIEKLQNTGVADGYPVRLECRVLGVPPPQIFWKKENESLTHSTDRVSMHQDNHGYICLLIQGATKEDAGWYTVSAKNEAGIVSCTARLDVYTQWHQQSQSTKPKKVRPSASRYAALSDQGLDIKAAFQPEANPSHLTLNTALVESEDL | soluble |
| MAGTRDYDHLFKLLIIGDSGVGKSSLLLRFADNTFSENYITTIGVDFKIRTMDINGQRVKLQIWDTAGQERFRTITSTYYRGTHGVVVVYDVTNGESFGNVKRWLQEIENNCDSVQKVLVGNKCEENERRVVLESDARNYAQSMNISFFETSAKEDKNVEPMFTCITSLVLTAKLANPQSASKDQSRTGGVSLKDNSGSTNQKKKCKCG | not soluble |
| MASRLNEDPEGSRITYVKGDLFACPKTDSLAHCISEDCRMGAGIAVLFKKRFGGVQELLSQQKKSGEVAVLKRDGRYIYYLITKKRASHKPTYENLQKSLEAMKSHCLKNGVTDLSMPRIGCGLDRLQWENVSAILEEVFESTDIKITVYTL | not soluble |
| MAMQAAKRANIRLPPEVNRILMIRNLPYKITAEEMYDIFGKYGPIRQIRVGNTPETRGTAYVVYEDIFDAKNACDHLSGFNVCNRYLVVLYYNANRAFQKMDTKKKEEQLKLLKEKYGINTDPPK | soluble |
| QAGRFIGQEISGRLSSRSMLAVQIDDLLKLAARFVGEERARQSFIRFAYRQGKGFNPNQNADGEWIAHTERLLAGVLGASSTRAVVKAAIEGREMQLEDVVRIADEASEVLQFNRALLQGAIENITQGISVVDQSL | not soluble |
| MSLKNNVYILADSVVTPLGQSTEENMEKLYSLQSAIRTYTHPQIGTFYASKFEDGKSFQIKKDAAGKTKIERLFISCIEKALERTEIDVENANVLFVFASTKGNVEYLTDETFDKNRLRIGITAQDVTAYFNNPNTPIVVSNACISGLQAIQYGYEVLQDNRYTHVVVTGADCFSEFILSGFHSFQALSPFPCKPFDKARAGLSLGEGCGTLILSNKKTDAAAIEILSVVSSNDANHLSGPSRTGEGLSSAILGAINEAGITAEQIDVISAHGTATLYNDEMESMAFKTANLEAKAVYSVKGNIGHTLGAAGIIETIYLAQSLQNNMLVPSIGFTETGTSVELNVTRQSTLKTMQIGLKTASGFGGGNTALLLKKEGHHHHHH | not soluble |
| MVSEMLSEAGHSVSYLKGGMKAWSEHLEPVKVGDLKDGGEMYQFVRIGKGCLSYMVISNGEAAIIDATRMVNFFIDFAKGKGATITHVFDTHLHADHISGGRVIAEKTKATYWLPPKDAEEVEFDYQPLEEGNDIIIGNTTIKIQPIYSPGHTIGSTSFIVDDQYLLSGDILFIDSIGRPDLAGMAEDWVGDLRKTLYSRYKALSKDLIVLPAHFMIIDELNENGSVGKQLSTLFSENHGLNIADETEFRHLVTDHLPPQPNAYQEIRETNMGKISPDEEKQREMEIGPNRCAIRLEHHHHHH | not soluble |
| MSEQVYSGVDQDEDGGLTPLGRIVIDAWVFGILPESEMCTGWSMSQMQNLYEEVYAAWGPYAHLPSRLPPELQQRHSFFYSQRITVAKNNGWDTDLSDES | not soluble |
| MSLGGSVEVLHWWTAGGEAKAVSALKDQFEAEGGTWIDSPVAGGGGDAAMTALRSRVIAGNPPSAVQLKGPSIQEWAAEGVVANLDDIAKAENWDKLLPALLKSVVTYEGHYVAVPVNIHRVDWLWANPAVLAKAGVAVPTTWDEFNTAAEALKAKGIIPLAHGGQPWQDATLFEVVVLGLGGPAFYHKALVELDDAALRGDTMVKVFDQMRRLRGFVDPNFSGRDWNLATAMVINGEAGFQIMGDWAKGEFLGAGKVPGKDFLCIAAPGKGFLLNSDSLVMFDVKGADKIEGQKTLARLVLGETFQRTFNTLKGSIPARQGMDLADFDACAQKSQADLTKAIAADSLEPSMAHEMAVPRSVRGAIMDVVTAHFNSSESSAEAVAHLADSIAQAREGHHHHHH | soluble |
| MSSRHRLDLDGSGRGDRRRSPNRRSRSRSRSPHRRSSPDRKRQIGAVGNMKIQINPYNNQPFSNRYWAIWEKRSQLPVWEYKEKFMELLRNNQCITLVGETGSGKTTQIPQWAVEFMKQQQQGQPPGQARLVACTQPRRVAAMSVATRVAEEMDVVLGQEVGYSIRFEDCISERTVLKYCTDGMLLREAMNSPLLDKYKVLILDEAHERTLATDILMGLIKEIVRNRADIKVVIMSATLDAGKFQRYFEDCPLLSVPGRTFPVEIFFTPNAEKDYLEAAIRTVIQIHMVEEVEGDILLFLTGQEEIEEACKRIDREIQALGADAGALSCIPLYSTLPPAAQQRIFEPAPPNRPNGAISRKCVISTNIAETSLTIDGVVFVIDPGFSKQKVYNPRIRVESLLVCPISKASAMQRAGRAGRTKPGKCFRLYTETAYGSEMQDQTYPEILRSNLGSVVLQLKKLGTEDLVHFDFMDPPAPETLMRALELLNYLQAINDDGELTELGSLMAEFPLDPQLAKMLITSTELNCSNEILSITAMLSVPQCWVRPNEMRTEADEAKARFAHIDGDHLTLLNVYHSFKQNQEDPQWCYDNFINYRTMKTADTVRTQLSRVMDKYNLRRVSTDFKSRDYYLNIRKALVAGFFMQVAHLERSGHYVTVKDNQLVNLHPSTVLDHKPEWALYNEFVLTTKNFIRTVTDVRPEWLLQIAPQYYDLDNFPDGDTKRKLTTVMQTLQRNAGRGY | soluble |
| MVNKVLVANRGEIAVRIIRACKELGIPTVAIYNEVESTARHVKLADEAYMIGTDPLDTYLNKQRIINLALEVGADAIHPGYGFLAENAEFAKMCEEAGITFIGPHWKVIELMGDKARSKEVMKKAGVPVVPGSDGVLKSLEEAKALAREIGYPVLLKATAGGGGRGIRICRNEEELVKNYEQASREAEKAFGRGDLLLEKFIENPKHIEYQVLGDKHGNVIHLGERDCSIQRRNQKLVEIAPSLILTPEKREYYGNIVTKAAKEIGYYNAGTMEFIADQEGNLYFIEMNTRIQVEHPVSEMVTGIDIVKWQIKIAAGEPLTIKQEDVKFNGYAIECRINAEDPKKNFAPSTRVIERYYVPGGFGIRVEHAAARGFEVTPYYDSMIAKLITWAPTWDEAVERMRAALETYEITGVKTTIPLLINIMKEKDFKAGKFTTKYLEEHPEVFEYEE | soluble |
| MRRRVGLGAIQQQKLAAEKYKDKGTDLQENQLEQMTKQMEVFRVKLEEFAMKHKEDIRKNSQFRKQFQEMCAAIGVDPLATGKGFWSVLGMGDFYYELGVQVVEVCLAANHKTGGLMELDDLRRRLIAARGQSSVHQEITKEDILMAAKKLSIFGNGFVVHKLGKGKYIVQSIPGELSMEETNILNAASNTEQGCVTQSQLIKDLGWTDYRAQQSLDKVLGEGLCWIDKQAGDEPAYWFPSLFPGRNAQTTAATAAAAAALEHHHHHH | not soluble |
| MQHAKIFFVIASVKFLMILSIHNYTQMSKTCKLRTVARKTVMEFEGVEDFIVPFVNYTKRFMVAPDKKLISCTLRKSMSQLAENIMCLLYDEQQYFANSQSLNDTWKDERKCEHDRSYLNPSETLLNDTDTVRFAFIRDPFQRFISFYLDKCVREQKCYNCGNNMTCVLKNFYWGLKKVQRRWDGREQPEYVEIHAAPLSWNCDFYKDLSKWQLIPIGSDKTERSSAITQTEKILRKQRVNETLVDMVVDGMKDGDTDHSTYKSAHRLEAERQIREDPYIREMLHKIYYFDYVVFPFNRDSLDLKFQDTSCTIPLP | not soluble |
| GPLGSGGLFFNALKNCKENFTVLQTIRQQQSTLNGSWVALLQTRNTLNRAGIRYMMDQNNIGSGSTVAELMESASISLKQAEKNWADYEALPRDPRQSTAAAAEIKRNYDIYHNALAELIQLLGAGKINEFFDQPTQGYQDGFEKQYVAYMEQNDRLHDIAVSDNNASYSHHHHHH | soluble |
